According to US20100111852A1 (FORERUNNER PHARMA RESEARCH, published 2010):

Assays:
human Claudin 3 [1] = target: T1, human Claudin 3 (human, UniProt O15551 1-220); assay: flow cytometry, hCLDN3/DG44 cells, 1 ug/mL antibody
T1 construct: forced expression in DG44 or Ba/F3 cells, or endogenous on MCF7 cells; four-transmembrane tight junction protein; also called hCLDN3; hCLN3
T1 sequence: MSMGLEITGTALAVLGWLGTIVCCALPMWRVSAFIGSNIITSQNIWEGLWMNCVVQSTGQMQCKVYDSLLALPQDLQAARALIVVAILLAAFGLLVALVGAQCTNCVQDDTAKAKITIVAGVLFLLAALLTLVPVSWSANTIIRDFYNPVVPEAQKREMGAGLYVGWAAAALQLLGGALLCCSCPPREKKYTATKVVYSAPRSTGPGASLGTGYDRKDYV

human Claudin 3 [2] = target: T1, human Claudin 3; assay: flow cytometry, hCLDN3/DG44 cells, 5 ug/mL antibody
[3] = target: T2, human Claudin 1 with C-terminal FLAG tag (human, UniProt O95832 1-211); assay: flow cytometry, hCLDN1/Ba/F3 cells, 2 ug/mL antibody
T2 construct: whole, on cells; forced expression in Ba/F3 cells; also called hCLDN1; hCLN1
T2 sequence (looked up): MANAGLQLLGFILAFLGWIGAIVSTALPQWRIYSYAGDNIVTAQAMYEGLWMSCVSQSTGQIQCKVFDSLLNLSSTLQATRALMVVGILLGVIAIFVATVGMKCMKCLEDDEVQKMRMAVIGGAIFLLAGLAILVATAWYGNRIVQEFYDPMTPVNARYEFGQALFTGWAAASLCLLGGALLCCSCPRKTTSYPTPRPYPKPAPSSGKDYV
Description: (§1) A monoclonal antibody was added to the respective forced expression cells, and then incubated at 4° C. for 30 minutes. After incubation, the cells were washed once with a PBS solution containing 1% fetal bovine serum, then a 150-fold dilution of an FITC-goat anti-mouse IgG (H+L) antibody (Beckman Coulter) was added, and this was incubated at 4° C. for 30 minutes. The amount of antibodies bound per cell was measured using FACSCalibur, and the X geometric mean value, which is the geometric mean of the cell fluorescence intensity, was calculated using the accessory CellQuest Pro analysis software of FACSCalibur.
(§2) The cross reactivity for human Claudin 3, human Claudin 1, human Claudin 4, human Claudin 6, and mouse Claudin 3 forcedly expressed in Ba/F3 was evaluated using at a final antibody concentration of 2 μg/mL.

human Claudin 3 [4] = target: T1, human Claudin 3; assay: flow cytometry, hCLDN3/Ba/F3 cells, 2 ug/mL antibody
Description: as §1, §2

[5] = target: T3, human Claudin 4 with C-terminal FLAG tag (human, UniProt O14493 1-209); assay: flow cytometry, hCLDN4/Ba/F3 cells, 2 ug/mL antibody
T3 construct: whole, on cells; forced expression in Ba/F3 cells; also called hCLDN4; hCLN4
T3 sequence (looked up): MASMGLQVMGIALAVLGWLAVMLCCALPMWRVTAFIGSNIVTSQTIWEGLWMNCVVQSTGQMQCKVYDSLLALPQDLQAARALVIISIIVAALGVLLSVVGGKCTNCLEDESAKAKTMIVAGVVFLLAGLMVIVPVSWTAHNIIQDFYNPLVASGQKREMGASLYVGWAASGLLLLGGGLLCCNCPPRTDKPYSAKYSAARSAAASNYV
Description: as §1, §2

[6] = target: T4, human Claudin 6 with C-terminal FLAG tag (human, UniProt P56747 1-220); assay: flow cytometry, hCLDN6/Ba/F3 cells, 2 ug/mL antibody
T4 construct: whole, on cells; forced expression in Ba/F3 cells; also called hCLDN6; hCLN6
T4 sequence (looked up): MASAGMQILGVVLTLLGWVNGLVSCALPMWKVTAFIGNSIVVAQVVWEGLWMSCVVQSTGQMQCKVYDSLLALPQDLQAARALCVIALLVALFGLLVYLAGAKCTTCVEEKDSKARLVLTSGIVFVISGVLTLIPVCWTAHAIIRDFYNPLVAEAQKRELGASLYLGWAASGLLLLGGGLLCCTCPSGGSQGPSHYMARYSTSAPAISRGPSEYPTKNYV
Description: as §1, §2

mouse Claudin 3 = target: T5, mouse Claudin 3 (mouse, UniProt Q9Z0G9 1-219); assay: flow cytometry, mCLDN3/Ba/F3 cells, 2 ug/mL antibody
T5 construct: whole, on cells; also called mCLDN3; mCLN3
T5 sequence (looked up): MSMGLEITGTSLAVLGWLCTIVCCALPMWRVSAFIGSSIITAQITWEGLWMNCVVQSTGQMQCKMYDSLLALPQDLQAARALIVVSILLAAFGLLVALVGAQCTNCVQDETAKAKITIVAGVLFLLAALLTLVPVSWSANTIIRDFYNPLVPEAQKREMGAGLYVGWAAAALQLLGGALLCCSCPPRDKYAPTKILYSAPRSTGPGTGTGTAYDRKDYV
Description: as §1, §2

human Claudin 3 [7] = target: T1, human Claudin 3; assay: flow cytometry, hCLDN3/DG44 cells, 0.1 ug/mL antibody
human Claudin 3 [8] = target: T1, human Claudin 3; assay: flow cytometry, MCF7 cells (endogenous Claudin 3), 1 ug/mL antibody
Description: as §1
(§3) The affinity of the antibodies to the MCF7 breast cancer cell line (ATCC, HTB-22), which endogenously expresses Claudin 3, was evaluated by the flow cytometry method.

human Claudin 3 [9] = target: T1, human Claudin 3; assay: flow cytometry, MCF7 cells (endogenous Claudin 3), 5 ug/mL antibody
Description: as §1, §3

B1: CDN04 (antibody, mouse IgG1, kappa, V domains shown)
VH: EVQLQQSGPELVKPGASMKISCKASGYSFTGYTMNWMKQGHGKNLEWIGLINPYNGGTSYNQKFKDKATLTLDKSSSSAYMELLSLTSEDSAVYYCARGSYGSSYFDYWGQGTTLTVSS
VL: DIVMSQSPSSLAVSVGEKVTMSCKSSQSLLYGSNQKNYLAWYQQKPGQSPKLLIYWASTRESGVPDRFTGSGSGTDFTLTISSVKAEDLAVYYCQQYYNFPYTFGGGTKLEIKR
notes: mouse monoclonal, IgG1/IgK; also called CDN4
X geometric mean (human Claudin 3 [1]): 180 | X geometric mean (human Claudin 3 [2]): 667 | X geometric mean [3]: 11 | X geometric mean (human Claudin 3 [4]): 366 | X geometric mean [5]: 14 | X geometric mean [6]: 9 | X geometric mean (mouse Claudin 3): 16 | X geometric mean (human Claudin 3 [7]): 28 | X geometric mean (human Claudin 3 [8]): 47 | X geometric mean (human Claudin 3 [9]): 130

B2: CDN35 (antibody, V domains shown)
VH: EVQLQQSGPELVKPGASVKMSCKASGYTFTDYYMNWVKQSHGKSLEWIGRVNPSNGGTSYNQKFKGKATLTVDKSLSTAYMQLNSLTSEDSAVYYCARGLAYYSNSFTYWGQGTLVTVSA
VL: KIVLTQSPASLAVSLRQRATISCRASESVDSYGNSFMHWYQQKPGQPPKLLIYRASNLESGVPARFSGSGSRTDFTLTIDPVEADDAATYYCQQNNEDPWTFGGGTKLEIKR
notes: mouse monoclonal, IgG2a/IgK
X geometric mean (human Claudin 3 [1]): 869 | X geometric mean (human Claudin 3 [2]): 2300 | X geometric mean (human Claudin 3 [4]): 2150 | X geometric mean [5]: 59 | X geometric mean [6]: 36 | X geometric mean (mouse Claudin 3): 1310 | X geometric mean (human Claudin 3 [7]): 120 | X geometric mean (human Claudin 3 [8]): 176 | X geometric mean (human Claudin 3 [9]): 380

B3: CDN16 (antibody, mouse IgG2b, kappa, V domains shown)
VH: EVQLQQSGPELVKPGASVKMSCKASGYTFTDYYMNWVKQSHGKSLEWIGRVNPSNGGTSYNQKFKGKATLTVDKSLSTAYMQLNSLTSEDSAVYYCARGLAYYSNSFVYWGQGTLVTVSA
VL: KIVLTQSPASLAVSLRQRATISCRASESVDSYGNSFMHWYQQKPGQPPKLLIYRASNLESGVPARFSGSGSRTDFTLTIDPVEADDAATYYCQQNNEDPWTFGGGTKLEIKR
notes: mouse monoclonal, IgG2b/IgK
X geometric mean (human Claudin 3 [1]): 928 | X geometric mean (human Claudin 3 [2]): 2480 | X geometric mean (human Claudin 3 [4]): 1980 | X geometric mean [5]: 11 | X geometric mean [6]: 9 | X geometric mean (mouse Claudin 3): 1270 | X geometric mean (human Claudin 3 [7]): 125 | X geometric mean (human Claudin 3 [8]): 125 | X geometric mean (human Claudin 3 [9]): 361

B4: CDN27 (antibody, V domains shown)
VH: EVQLQQSGPELVKPGASVKISCKASGYSFTGYFMNWVKQSHGKSLEWIGRINPYNGDTFYNQKFKGKATLTVDKSSSTAHMELRSLTSEDSAVYYCARSGDWYFDVWGAGTTVTVSS
VL: DIVLTQSPASLAVSLGQRATISCRASKSVSTSSYSYMHWYQQKPGQPPKLLIKFASYLESGVPARFSGSGSGTDFTLNIHPVEEEDAATYYCQHSREFPRTFGGGTKLEIKR
notes: mouse monoclonal, IgG2a/IgK
X geometric mean (human Claudin 3 [1]): 1790 | X geometric mean (human Claudin 3 [2]): 2700 | X geometric mean [3]: 42 | X geometric mean (human Claudin 3 [4]): 3340 | X geometric mean [5]: 302 | X geometric mean [6]: 25 | X geometric mean (mouse Claudin 3): 50 | X geometric mean (human Claudin 3 [7]): 308 | X geometric mean (human Claudin 3 [8]): 202 | X geometric mean (human Claudin 3 [9]): 310

B5: CDN38 (antibody, V domains shown)
VH: EVQLQQSGPELVKPGASVKMSCKASGYSFTGYFMNWVKQSHGKSLEWIGRINPYNGDTFYNQKFKGKATLTVDKSSSTAHMELRSLTSEDSALYYCARSGNYVMDYWGQGTSVTVSS
VL: DIVLTQSPASLAVSLGQSVTISCRASESVEYYGTSLMQWYQQKPGQPPKLLIYGASNVESGVPARFSGSGSGTDFSLNIHPVEEDDIAMYFCQQSRKVPWTFGGGTKLEIKR
X geometric mean (human Claudin 3 [1]): 215 | X geometric mean (human Claudin 3 [2]): 258 | X geometric mean [3]: 7 | X geometric mean (human Claudin 3 [4]): 142 | X geometric mean [5]: 74 | X geometric mean [6]: 9 | X geometric mean (mouse Claudin 3): 115 | X geometric mean (human Claudin 3 [7]): 207 | X geometric mean (human Claudin 3 [8]): 63 | X geometric mean (human Claudin 3 [9]): 61

B6: CDN28 (antibody, mouse IgG1, kappa, V domains shown)
VH: EVQLQQSGPELVKPGASVKISCKASGYSFTGYFMNWVKQSHGKSLEWLGRINPYNGDTFYNQKFKGKATLTVDKSSNTAHMELRSLTSEDSAVYYCARGDGYYVTSLAYWGQGTLVTVSA
VL: NIVMTQSPKSMSMSVGERVTLSCKASENVVSYVSWFQQKPEQSPKLLIYGASNRYTGVPDRFTGSGSATDFTLTISSVQAEDLADYYCGQSYSYPLTFGAGTKLELKR
notes: mouse monoclonal, IgG1/IgK
X geometric mean (human Claudin 3 [1]): 1450 | X geometric mean (human Claudin 3 [2]): 1990 | X geometric mean [3]: 12 | X geometric mean (human Claudin 3 [4]): 1430 | X geometric mean [5]: 27 | X geometric mean [6]: 9 | X geometric mean (human Claudin 3 [7]): 275 | X geometric mean (human Claudin 3 [8]): 175 | X geometric mean (human Claudin 3 [9]): 186
